Measurements published in patent US9284543B2, “Neutral active soluble truncated PH20 polypeptides and uses thereof” (Halozyme, Inc., priority 2008, dated 2016).

Legend:
[1] = system: CHO-S cells; test: PI-PLC treatment of expressing cells, Western blot of media and cells; assay type: cell-based, Chinese Hamster; details: cells incubated with PI-PLC for 2 hours
Summary of the method: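 CHO-S cells transiently expressing rHuPH20 or C-terminal truncation mutants were treated with PI-PLC (0.5 units/well, or 3.0 units/dish in serum/detergent-free medium) for 2 h at 37 °C after 48–72 h expression. Untreated and treated media and cell extracts were analysed separately by Western blot for PH20.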

[2] = Triton X-114 partition assay; assay type: physicochemical; details: partition into aqueous phase of Triton X-114 at 37° C.
Method: Solubility of a hyaluronidase can be determined by any method known to one of the skill in the art. One method for determining solubility is by detergent partitioning. […] For example, the solubility of the PH20 polypeptides described herein is assessed as described in Example 4. Membrane-anchored hyaluronidases, such as lipid-anchored hyaluronidases, including GPI-anchored hyaluronidases, will partition into the detergent-rich phase, but will partition into the detergent-poor or aqueous phase following treatment with Phospholipase C. Phospholipase C is an enzyme that cleaves the […] found in GPI-anchored proteins. Treatment with PLC will cause release of GPI-linked proteins from the outer cell membrane.
The samples were heated to 37° C. for 3 minutes to induce phase separation and centrifuged for 3 min at 4000 g at room temperature. Aqueous and detergent phases were removed for SDS-PAGE analysis and Western blotting. Rabbit anti-PH20 IgG (0.5 μg/mL) was used as the primary antibody and HRP-conjugated goat anti-Rabbit IgG (0.1 ng/mL, Cat#DC03L, EMD) was used as the secondary antibody. Full length human PH20, which partitions strongly into the detergent phase, was used as a control.

[3] = system: CHO-S cells; test: Western blot analysis of PH20 expression in media and cells after transient expression; assay type: cell-based, Chinese Hamster; details: media versus cells
Summary of the method: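 CHO-S cells were transiently transfected with mutant PH20-HZ24 plasmids using GeneJuice and expressed for 48-72 h at 37 °C, 5% CO2. Media and cells were harvested separately, with PI-PLC treatment used to release GPI-anchored protein. Non-reduced samples were blotted with rabbit anti-PH20 (0.5 μg/mL), and a band near 66 kDa was scored as PH20.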

[4] = Microtiter hyaluronidase activity assay with biotinylated-hyaluronic acid; assay type: biochemical; details: 72 hour post transfection supernatant

| Molecule | Expressed in Media Following Addition of PI-PLC [1] | Soluble [2] | Expressed in Media [3] | pH 5.5 Activity ([4]; Table 6) | pH 7.4 Activity ([4]; Table 6) | pH 5.5 Activity ([4]; Table 6A) | pH 7.4 Activity ([4]; Table 6A) |
| --- | --- | --- | --- | --- | --- | --- | --- |
| SPAM1-STLS: C-terminally truncated human PH20, precursor 490 aa (SEQ ID NO:13), mature 455 aa (SEQ ID NO:65) (protein, listed as Homo sapiens, HuPH20 precursor 1-490; mature HuPH20 36-490) chain 1: MGVLKFKHIFFRSFVKSSGVSQIVFTFLLIPCCLTLNFRAPPVIPNVPFLWAWNAPSEFCLGKFDEPLDMSLFSFIGSPRINATGQGVTIFYVDRLGYYPYIDSITGVTVNGGIPQKISLQDHLDKAKKDITFYMPVDNLGMAVIDWEEWRPTWARNWKPKDVYKNRSIELVQQQNVQLSLTEATEKAKQEFEKAGKDFLVETIKLGKLLRPNHLWGYYLFPDCYNHHYKKPGYNGSCFNVEIKRNDDLSWLWNESTALYPSIYLNTQQSPVAATLYVRNRVREAIRVSKIPDAKSPLPVFAYTRIVFTDQVLKFLSQDELVYTFGETVALGASGIVIWGTLSIMRSMKSCLLLDNYMETILNPYIINVTLAAKMCSQVLCQEQGVCIRKNWNSSDYLHLNPDNFAIQLEKGGKFTVRGKPTLEDLEQFSEKFYCSCYSTLSCKEKADVKDTDAVDVCIADGVCIDAFLKPPMETEEPQIFYNASPSTLS chain 2: LNFRAPPVIPNVPFLWAWNAPSEFCLGKFDEPLDMSLFSFIGSPRINATGQGVTIFYVDRLGYYPYIDSITGVTVNGGIPQKISLQDHLDKAKKDITFYMPVDNLGMAVIDWEEWRPTWARNWKPKDVYKNRSIELVQQQNVQLSLTEATEKAKQEFEKAGKDFLVETIKLGKLLRPNHLWGYYLFPDCYNHHYKKPGYNGSCFNVEIKRNDDLSWLWNESTALYPSIYLNTQQSPVAATLYVRNRVREAIRVSKIPDAKSPLPVFAYTRIVFTDQVLKFLSQDELVYTFGETVALGASGIVIWGTLSIMRSMKSCLLLDNYMETILNPYIINVTLAAKMCSQVLCQEQGVCIRKNWNSSDYLHLNPDNFAIQLEKGGKFTVRGKPTLEDLEQFSEKFYCSCYSTLSCKEKADVKDTDAVDVCIADGVCIDAFLKPPMETEEPQIFYNASPSTLS | Initially in media | YES | YES | 1.2375 Units/ml | 0.819 Units/ml | – | – |
| SPAM1-SATM: C-terminally truncated human PH20, precursor 493 aa (SEQ ID NO:10), mature 458 aa (SEQ ID NO:62) (protein, listed as Homo sapiens, HuPH20 precursor 1-493; esHuPH20 36-493) chain 1: MGVLKFKHIFFRSFVKSSGVSQIVFTFLLIPCCLTLNFRAPPVIPNVPFLWAWNAPSEFCLGKFDEPLDMSLFSFIGSPRINATGQGVTIFYVDRLGYYPYIDSITGVTVNGGIPQKISLQDHLDKAKKDITFYMPVDNLGMAVIDWEEWRPTWARNWKPKDVYKNRSIELVQQQNVQLSLTEATEKAKQEFEKAGKDFLVETIKLGKLLRPNHLWGYYLFPDCYNHHYKKPGYNGSCFNVEIKRNDDLSWLWNESTALYPSIYLNTQQSPVAATLYVRNRVREAIRVSKIPDAKSPLPVFAYTRIVFTDQVLKFLSQDELVYTFGETVALGASGIVIWGTLSIMRSMKSCLLLDNYMETILNPYIINVTLAAKMCSQVLCQEQGVCIRKNWNSSDYLHLNPDNFAIQLEKGGKFTVRGKPTLEDLEQFSEKFYCSCYSTLSCKEKADVKDTDAVDVCIADGVCIDAFLKPPMETEEPQIFYNASPSTLSATM chain 2: LNFRAPPVIPNVPFLWAWNAPSEFCLGKFDEPLDMSLFSFIGSPRINATGQGVTIFYVDRLGYYPYIDSITGVTVNGGIPQKISLQDHLDKAKKDITFYMPVDNLGMAVIDWEEWRPTWARNWKPKDVYKNRSIELVQQQNVQLSLTEATEKAKQEFEKAGKDFLVETIKLGKLLRPNHLWGYYLFPDCYNHHYKKPGYNGSCFNVEIKRNDDLSWLWNESTALYPSIYLNTQQSPVAATLYVRNRVREAIRVSKIPDAKSPLPVFAYTRIVFTDQVLKFLSQDELVYTFGETVALGASGIVIWGTLSIMRSMKSCLLLDNYMETILNPYIINVTLAAKMCSQVLCQEQGVCIRKNWNSSDYLHLNPDNFAIQLEKGGKFTVRGKPTLEDLEQFSEKFYCSCYSTLSCKEKADVKDTDAVDVCIADGVCIDAFLKPPMETEEPQIFYNASPSTLSATM | Initially in media | YES | YES | 0.7335 Units/ml | 0.5715 Units/ml | 0.851 Units/ml | 0.689 Units/ml |
| SPAM1-TLSA: C-terminally truncated human PH20, precursor 491 aa (SEQ ID NO:11), mature 456 aa (SEQ ID NO:63) (protein, listed as Homo sapiens, HuPH20 precursor 1-491; esHuPH20 36-491) chain 1: MGVLKFKHIFFRSFVKSSGVSQIVFTFLLIPCCLTLNFRAPPVIPNVPFLWAWNAPSEFCLGKFDEPLDMSLFSFIGSPRINATGQGVTIFYVDRLGYYPYIDSITGVTVNGGIPQKISLQDHLDKAKKDITFYMPVDNLGMAVIDWEEWRPTWARNWKPKDVYKNRSIELVQQQNVQLSLTEATEKAKQEFEKAGKDFLVETIKLGKLLRPNHLWGYYLFPDCYNHHYKKPGYNGSCFNVEIKRNDDLSWLWNESTALYPSIYLNTQQSPVAATLYVRNRVREAIRVSKIPDAKSPLPVFAYTRIVFTDQVLKFLSQDELVYTFGETVALGASGIVIWGTLSIMRSMKSCLLLDNYMETILNPYIINVTLAAKMCSQVLCQEQGVCIRKNWNSSDYLHLNPDNFAIQLEKGGKFTVRGKPTLEDLEQFSEKFYCSCYSTLSCKEKADVKDTDAVDVCIADGVCIDAFLKPPMETEEPQIFYNASPSTLSA chain 2: LNFRAPPVIPNVPFLWAWNAPSEFCLGKFDEPLDMSLFSFIGSPRINATGQGVTIFYVDRLGYYPYIDSITGVTVNGGIPQKISLQDHLDKAKKDITFYMPVDNLGMAVIDWEEWRPTWARNWKPKDVYKNRSIELVQQQNVQLSLTEATEKAKQEFEKAGKDFLVETIKLGKLLRPNHLWGYYLFPDCYNHHYKKPGYNGSCFNVEIKRNDDLSWLWNESTALYPSIYLNTQQSPVAATLYVRNRVREAIRVSKIPDAKSPLPVFAYTRIVFTDQVLKFLSQDELVYTFGETVALGASGIVIWGTLSIMRSMKSCLLLDNYMETILNPYIINVTLAAKMCSQVLCQEQGVCIRKNWNSSDYLHLNPDNFAIQLEKGGKFTVRGKPTLEDLEQFSEKFYCSCYSTLSCKEKADVKDTDAVDVCIADGVCIDAFLKPPMETEEPQIFYNASPSTLSA | Initially in media | YES | YES | 0.5625 Units/ml | 0.3645 Units/ml | 0.729 Units/ml | 0.851 Units/ml |
